Data from article PMC3431306 (2012).

B1: FIV CA N-terminal domain (CA^N) (domain or fragment)
chain: PIQTVNGVPQYVALDPKMVSIFMEKAREGLGGEEVQLWFTAFSANLTPTDMATLIMAAPGCAADKEILDESLKQLTAEYDRTHPPDAPRPLPYFTAAEIMGIGLTQEQQAEARFAPARMQCRAWYLEALGKLAAIKAKS
B2: HIV-2 CA N-terminal domain (CA^N) (domain or fragment)
chain: not shown

Key:
[1] = target: CPSF6_(313–327) peptide (cleavage and polyadenylation specific factor 6, residues 313–327) (UniProt Q16630-2 313-327, N-terminal His tag omitted; strain not given, isolate Petaluma taken; CA residues 1-139 by alignment to HIV-1 CA 1-146); test: ITC
[2] = target: CPSF6_(313–327) peptide (cleavage and polyadenylation specific factor 6, residues 313–327) (UniProt Q16630-2 313-327); test: ITC

| Binder | Kd [1] [µM] | Kd [2] [µM] |
| --- | --- | --- |
| B1 | 242 |  |
| B2 |  | 350 |
